Starred links: 1 amine or outer side, 2 acyl side, 3 side chain; linkers in the order of their positions; H or OH if unused. Non-standard residues stand in square brackets, D forms with d. Ala(piperidin-4-yl) = O=C([C@H](CC1CCN([*:3])CC1)N[*:1])[*:2]; Phe(2,6-Me2) = Cc1cccc(C)c1C[C@H](N)C(=O)O; 2Nal = N[C@@H](Cc1ccc2ccccc2c1)C(=O)O; Arg(Me) = CNC(=N)NCCC[C@H](N)C(=O)O; 4Pal = N[C@@H](Cc1ccncc1)C(=O)O; Cha = N[C@@H](CC1CCCCC1)C(=O)O; dIva = CC[C@@](C)(N)C(=O)O; Iva = CC[C@](C)(N)C(=O)O; Nle = CCCC[C@H](N)C(=O)O; Aib = CC(C)(N)C(=O)O
Experiments:
[1] = biological target: T1, human Y2 receptor (Homo sapiens, UniProt P49146); test: Human Y2 Receptor G Protein Binding Assay (GBA), [35S]GTPγS; format: biochemical; settings: EC50 of test compound/EC50 of PYY(3-36) (PYY3-36 taken as 1), hY2R/CHO membrane fraction
T1 construct: expressed in transfected cells; membrane fraction
T1 sequence (P49146 1-381): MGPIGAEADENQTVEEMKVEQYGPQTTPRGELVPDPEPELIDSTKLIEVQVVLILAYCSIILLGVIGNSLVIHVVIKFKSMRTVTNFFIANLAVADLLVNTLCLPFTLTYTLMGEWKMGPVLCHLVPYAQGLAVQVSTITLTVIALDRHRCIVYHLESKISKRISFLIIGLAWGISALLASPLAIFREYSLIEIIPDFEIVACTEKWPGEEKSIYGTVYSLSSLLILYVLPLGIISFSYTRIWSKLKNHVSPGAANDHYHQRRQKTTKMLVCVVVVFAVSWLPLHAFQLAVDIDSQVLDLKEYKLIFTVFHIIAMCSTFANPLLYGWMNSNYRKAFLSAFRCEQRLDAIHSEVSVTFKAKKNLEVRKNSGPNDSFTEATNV
Outline: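 Agonism measured as [35S]GTPγS binding, read by GF/C filtration and scintillation counting after 120 min at room temperature, using human Y2 membranes at 1 μg protein/mL in pH 7.4 Tris/MgCl2/NaCl/GDP buffer. Compound serially diluted 100 μM–1 nM; EC50 normalized to PYY(3-36) (ratio = compound/PYY).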

[2] = biological target: T1, human Y2 receptor; test: Receptor Binding Assay (RBA) for Human Y2, [125I]-PYY displacement on hY2R/CHO membrane fraction; settings: IC50 of test compound/IC50 of PYY(3-36) (PYY(3-36) taken as 1)
Outline: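 Read-out is [125I]-PYY displacement from membranes of CHO/dhfr− cells stably transfected with human Y2R. Membranes were obtained by disrupting cells in a buffer of 10 mM NaHCO3, 5 mM EDTA and protease inhibitors.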

[3] = test system: male C57EL/6J mice; test: 3-Days Continuous Subcutaneous Administration Test-1 (food intake suppressing activity); format: in vivo, mouse; settings: 0.03 mg/kg/day, subcutaneous Alzet pump, food consumption over 3 days; relative to food intake suppression rate for PYY(3-36) (1 mg/kg/day) taken as 100%
Outline: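 Male […] mice, 12-13 weeks, received compound at 0.03 mg/kg/day by subcutaneous osmotic pump (50% DMSO vehicle), housed singly with free food access. Food consumed over 3 days measured; suppression expressed relative to PYY(3-36) (1 mg/kg/day) set as 100%.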

Substance	GBA EC50 Ratio [1]	RBA IC50 Ratio [2]	food intake suppression rate (%) [3]
Ac-[D-Pro24, Iva25, Pya(4)26, Cha27,36, Aib28,31, Lys30]-PYY(23-36) (Ac-S[dP][Iva][4Pal][Cha][Aib]NK[Aib]TRQR[Cha]-NH2; SMILES CC[C@](C)(NC(=O)[C@H]1CCCN1C(=O)[C@H](CO)NC(C)=O)C(=O)N[C@@H](Cc1ccncc1)C(=O)N[C@@H](CC1CCCCC1)C(=O)NC(C)(C)C(=O)N[C@@H](CC(N)=O)C(=O)N[C@@H](CCCCN)C(=O)NC(C)(C)C(=O)N[C@H](C(=O)N[C@@H](CCCNC(=N)N)C(=O)N[C@@H](CCC(N)=O)C(=O)N[C@@H](CCCNC(=N)N)C(=O)N[C@@H](CC1CCCCC1)C(N)=O)[C@@H](C)O) [compound No. 237]	2.9	2.9	46%
Ac-[D-Pro24, Iva25, Pya(4)26, Cha27,36, Leu(Me)28, Lys30, Aib31]-PYY(23-36) [compound No. 295]	1.2	0.76	52%
Ac-[D-Pro24, Nle25, Pya(4)26, Cha27,36, Aib28,31, Lys30]-PYY(23-36) (Ac-S[dP][Nle][4Pal][Cha][Aib]NK[Aib]TRQR[Cha]-NH2; SMILES CCCC[C@H](NC(=O)[C@H]1CCCN1C(=O)[C@H](CO)NC(C)=O)C(=O)N[C@@H](Cc1ccncc1)C(=O)N[C@@H](CC1CCCCC1)C(=O)NC(C)(C)C(=O)N[C@@H](CC(N)=O)C(=O)N[C@@H](CCCCN)C(=O)NC(C)(C)C(=O)N[C@H](C(=O)N[C@@H](CCCNC(=N)N)C(=O)N[C@@H](CCC(N)=O)C(=O)N[C@@H](CCCNC(=N)N)C(=O)N[C@@H](CC1CCCCC1)C(N)=O)[C@@H](C)O) [compound No. 224]	2.4	3.0	30%
Ac-[D-Pro24, Pya(4)26, Cha27,36, Aib28,31, Ala(4-pip)30]-PYY(23-36) (Ac-S[dP]R[4Pal][Cha][Aib]N[Ala(piperidin-4-yl)][Aib]TRQR[Cha]-NH2; SMILES CC(=O)N[C@@H](CO)C(=O)N1CCC[C@@H]1C(=O)N[C@@H](CCCNC(=N)N)C(=O)N[C@@H](Cc1ccncc1)C(=O)N[C@@H](CC1CCCCC1)C(=O)NC(C)(C)C(=O)N[C@@H](CC(N)=O)C(=O)N[C@@H](CC1CCNCC1)C(=O)NC(C)(C)C(=O)N[C@H](C(=O)N[C@@H](CCCNC(=N)N)C(=O)N[C@@H](CCC(N)=O)C(=O)N[C@@H](CCCNC(=N)N)C(=O)N[C@@H](CC1CCCCC1)C(N)=O)[C@@H](C)O) [compound No. 313]	0.8	0.72	23%
Ac-[D-Pro24, Pya(4)26, Cha27,36, Aib28,31, Arg(Me)30]-PYY(23-36) (Ac-S[dP]R[4Pal][Cha][Aib]N[Arg(Me)][Aib]TRQR[Cha]-NH2) [compound No. 314]	1.2	1.1	21%
Ac-[D-Pro24, Pya(4)26, Cha27,36, Aib28,31, Lys30]-PYY(23-36) [compound No. 138]	1.3	1.8	38%
Ac-[D-Pro24, Pya(4)26, Cha27,36, Aib28, Lys30, D-Iva31]-PYY(23-36) (Ac-S[dP]R[4Pal][Cha][Aib]NK[dIva]TRQR[Cha]-NH2; SMILES CC[C@@](C)(NC(=O)[C@H](CCCCN)NC(=O)[C@H](CC(N)=O)NC(=O)C(C)(C)NC(=O)[C@H](CC1CCCCC1)NC(=O)[C@H](Cc1ccncc1)NC(=O)[C@H](CCCNC(=N)N)NC(=O)[C@H]1CCCN1C(=O)[C@H](CO)NC(C)=O)C(=O)N[C@H](C(=O)N[C@@H](CCCNC(=N)N)C(=O)N[C@@H](CCC(N)=O)C(=O)N[C@@H](CCCNC(=N)N)C(=O)N[C@@H](CC1CCCCC1)C(N)=O)[C@@H](C)O) [compound No. 232]	1.6	0.55	34%
Ac-[D-Pro24, Pya(4)26, Cha27,36, Iva28, Lys30, Aib31]-PYY(23-36) (Ac-S[dP]R[4Pal][Cha][Iva]NK[Aib]TRQR[Cha]-NH2; SMILES CC[C@](C)(NC(=O)[C@H](CC1CCCCC1)NC(=O)[C@H](Cc1ccncc1)NC(=O)[C@H](CCCNC(=N)N)NC(=O)[C@H]1CCCN1C(=O)[C@H](CO)NC(C)=O)C(=O)N[C@@H](CC(N)=O)C(=O)N[C@@H](CCCCN)C(=O)NC(C)(C)C(=O)N[C@H](C(=O)N[C@@H](CCCNC(=N)N)C(=O)N[C@@H](CCC(N)=O)C(=O)N[C@@H](CCCNC(=N)N)C(=O)N[C@@H](CC1CCCCC1)C(N)=O)[C@@H](C)O) [compound No. 233]	1.2	0.33	36%
Ac-[D-Pro24, Pya(4)26, Cha27,36, Iva28, Lys30, D-Iva31]-PYY(23-36) (Ac-S[dP]R[4Pal][Cha][Iva]NK[dIva]TRQR[Cha]-NH2; SMILES CC[C@@](C)(NC(=O)[C@H](CCCCN)NC(=O)[C@H](CC(N)=O)NC(=O)[C@](C)(CC)NC(=O)[C@H](CC1CCCCC1)NC(=O)[C@H](Cc1ccncc1)NC(=O)[C@H](CCCNC(=N)N)NC(=O)[C@H]1CCCN1C(=O)[C@H](CO)NC(C)=O)C(=O)N[C@H](C(=O)N[C@@H](CCCNC(=N)N)C(=O)N[C@@H](CCC(N)=O)C(=O)N[C@@H](CCCNC(=N)N)C(=O)N[C@@H](CC1CCCCC1)C(N)=O)[C@@H](C)O) [compound No. 249]	0.67	0.36	39%
Ac-[D-Pro24, Pya(4)26, Cha27, Aib28,31, Lys30, Phe(2,6-Me2)36]-PYY(23-36) (Ac-S[dP]R[4Pal][Cha][Aib]NK[Aib]TRQR[Phe(2,6-Me2)]-NH2; SMILES CC(=O)N[C@@H](CO)C(=O)N1CCC[C@@H]1C(=O)N[C@@H](CCCNC(=N)N)C(=O)N[C@@H](Cc1ccncc1)C(=O)N[C@@H](CC1CCCCC1)C(=O)NC(C)(C)C(=O)N[C@@H](CC(N)=O)C(=O)N[C@@H](CCCCN)C(=O)NC(C)(C)C(=O)N[C@H](C(=O)N[C@@H](CCCNC(=N)N)C(=O)N[C@@H](CCC(N)=O)C(=O)N[C@@H](CCCNC(=N)N)C(=O)N[C@@H](Cc1c(C)cccc1C)C(N)=O)[C@@H](C)O) [compound No. 329]	0.59	0.52	51%
Ac-[D-Pro24, Pya(4)26, Nal(2)27, Aib28,31, Lys30, Cha36]-PYY(23-36) (Ac-S[dP]R[4Pal][2Nal][Aib]NK[Aib]TRQR[Cha]-NH2; SMILES CC(=O)N[C@@H](CO)C(=O)N1CCC[C@@H]1C(=O)N[C@@H](CCCNC(=N)N)C(=O)N[C@@H](Cc1ccncc1)C(=O)N[C@@H](Cc1ccc2ccccc2c1)C(=O)NC(C)(C)C(=O)N[C@@H](CC(N)=O)C(=O)N[C@@H](CCCCN)C(=O)NC(C)(C)C(=O)N[C@H](C(=O)N[C@@H](CCCNC(=N)N)C(=O)N[C@@H](CCC(N)=O)C(=O)N[C@@H](CCCNC(=N)N)C(=O)N[C@@H](CC1CCCCC1)C(N)=O)[C@@H](C)O) [compound No. 307]	4.0	7.2	22%

Reference: US9260500B2, “Peptide and use thereof” (Takeda Pharmaceutical Company Limited, priority 2009, dated 2016)
